{"source": "patent US20240092919A1"}
{"biological_target": "human GPC3 on cells (human) (UniProt P51654)", "assay": "cell-based or functional assay", "units": {"IC50 (M), Incucyte human TDC HepG2-Nuclight green assay, E:T 15:1 (Step 2)": "M", "Max % Killing, Incucyte human TDC HepG2-Nuclight green assay (Step 2)": "%", "HepG2 on Incucyte IC50 (M), human TDC, E:T 15:1, 60 h": "M", "HepG2 on Incucyte Max % killing, 60 h": "%", "Huh7 on xCELLigence IC50 (M), human TDC, E:T 15:1, 60 h": "M", "Huh7 on xCELLigence Max % killing, 60 h": "%", "IC50 (M) BxPC-3, xCELLigence human TDC assay, E:T 15:1, 60 h": "M", "IC50 (M) HepG2, xCELLigence human TDC assay, E:T 15:1, 60 h": "M", "IC50 (M) Huh-7, xCELLigence human TDC assay, E:T 15:1, 60 h": "M", "IC50 (M) NCI-H23, xCELLigence human TDC assay, E:T 15:1, 60 h": "M", "IC50 (M) NCI-H661, xCELLigence human TDC assay, E:T 15:1, 60 h": "M"}}
{"binder": "A022600135 (protein) DVQLVESGGGVVQPGGSLRLSCVASGYVHKINFYGWYRQAPGKEREKVAHISIGDQTDYADSAKGRFTISRDESKNTVYLQMNSLRPEDTALYYCRALSRIWPYDYWGQGTLVTVSSGGGGSEVQLVESGGGLVQPGGSLRLSCVASGSIFRSVFSSSTMEWYRQPPGKKRELVARIAPGDGTNYGALYADSVKGRFTISRDDAKKTVDLQMNSLKPEDTGVYFCASGVAWGQGTLVTVSSGGGGSGGGSEVQLVESGGGLVQPGGSLRLSCVASGFTFSSFAMTWVRRPPGKGLEWVATITNGGVTSYRDSVKGRFTISRDNAKNTLYLEMTSLNPEDTAVYICANARRTGPRAPTDIGSYRGQGTLVTVSSGGGGSGGGGSGGGGSGGGGSGGGGSGGGGSGGGGSEVQLVESGGGVVQPGGSLRLSCAASGFTFRSFGMSWVRQAPGKGPEWVSSISGSGSDTLYADSVKGRFTISRDNSKNTLYLQMNSLRPEDTALYYCTIGGSLSRSSQGTLVTVSSA", "IC50 (M), Incucyte human TDC HepG2-Nuclight green assay, E:T 15:1 (Step 2)": "6.11e-10", "Max % Killing, Incucyte human TDC HepG2-Nuclight green assay (Step 2)": 91}
{"binder": "A022600170 (protein) DVQLVESGGGVVQPGGSLRLSCVASGYVHKINFYGWYRQAPGKEREKVAHISIGDQTDYADSAKGRFTISRDESKNTVYLQMNSLRPEDTAAYYCRALSRIWPYDYWGQGTLVTVSSGGGGSEVQLVESGGGLVQPGGSLRLSCVASGFTFSSFAMTWVRRPPGKGLEWVATITNGGVTSYRDSVKGRFTISRDNAKNTLYLEMTSLNPEDTAVYICANARRTGPRAPTDIGSYRGQGTLVTVSSGGGGSGGGGSGGGGSGGGGSGGGGSGGGGSGGGGSEVQLVESGGGLVQPGGSLRLSCVASGSIFRSVFSSSTMEWYRQPPGKKRELVARIAPGDGTNYGALYADSVKGRFTISRDDAKKTVDLQMNSLKPEDTGVYFCASGVAWGQGTLVTVSSGGGGSGGGSEVQLVESGGGVVQPGGSLRLSCAASGFTFRSFGMSWVRQAPGKGPEWVSSISGSGSDTLYADSVKGRFTISRDNSKNTLYLQMNSLRPEDTALYYCTIGGSLSRSSQGTLVTVSSA", "HepG2 on Incucyte IC50 (M), human TDC, E:T 15:1, 60 h": "3.19e-10", "HepG2 on Incucyte Max % killing, 60 h": 97, "Huh7 on xCELLigence IC50 (M), human TDC, E:T 15:1, 60 h": "1.86e-10", "Huh7 on xCELLigence Max % killing, 60 h": 103}
{"binder": "A022600427 (protein) DVQLVESGGGVVQPGGSLRLSCVASGYVHKINFYGWYRQAPGKEREKVAHISIGDQTDYADSAKGRFTISRDESKNTVYLQMNSLRPEDTAAYYCRALSRIWPYDYWGQGTLVTVSSGGGGSEVQLVESGGGVVQPGGSLRLSCAASGFTFSSFAMTWVRRPPGKGLEWVATITNAGVTSYADSVKGRFTISRDNAKNTLYLQMNSLRPEDTALYICANARRTGPRAPTDIGSYRGQGTLVTVSSGGGGSGGGSEVQLVESGGGVVQPGGSLRLSCAASGSIFRSVFSSSTMEWYRQAPGKKRELVARIAPGEGTYYGALYADSVKGRFTISRDNAKNTVYLQMNSLRPEDTALYYCASGVAWGQGTLVTVSSGGGGSGGGSEVQLVESGGGVVQPGGSLRLSCAASGFTFRSFGMSWVRQAPGKGPEWVSSISGSGSDTLYADSVKGRFTISRDNSKNTLYLQMNSLRPEDTALYYCTIGGSLSRSSQGTLVTVSSA", "IC50 (M) BxPC-3, xCELLigence human TDC assay, E:T 15:1, 60 h": "> 1e-07", "IC50 (M) HepG2, xCELLigence human TDC assay, E:T 15:1, 60 h": "1.03e-10", "IC50 (M) Huh-7, xCELLigence human TDC assay, E:T 15:1, 60 h": "1.37e-10", "IC50 (M) NCI-H23, xCELLigence human TDC assay, E:T 15:1, 60 h": "> 1e-07", "IC50 (M) NCI-H661, xCELLigence human TDC assay, E:T 15:1, 60 h": "1e-10"}
{"binder": "A022600172 (protein) DVQLVESGGGVVQPGGSLRLSCVASGYVHKINFYGWYRQAPGKEREKVAHISIGDQTDYADSAKGRFTISRDESKNTVYLQMNSLRPEDTAAYYCRALSRIWPYDYWGQGTLVTVSSGGGGSEVQLVESGGGLVQPGGSLRLSCVASGFTFSSFAMTWVRRPPGKGLEWVATITNGGVTSYRDSVKGRFTISRDNAKNTLYLEMTSLNPEDTAVYICANARRTGPRAPTDIGSYRGQGTLVTVSSGGGGSGGGSEVQLVESGGGVVQPGGSLRLSCAASGFTFRSFGMSWVRQAPGKGPEWVSSISGSGSDTLYADSVKGRFTISRDNSKNTLYLQMNSLRPEDTALYYCTIGGSLSRSSQGTLVTVSSGGGGSGGGSEVQLVESGGGLVQPGGSLRLSCVASGSIFRSVFSSSTMEWYRQPPGKKRELVARIAPGDGTNYGALYADSVKGRFTISRDDAKKTVDLQMNSLKPEDTGVYFCASGVAWGQGTLVTVSSA", "HepG2 on Incucyte IC50 (M), human TDC, E:T 15:1, 60 h": "6.01e-10", "HepG2 on Incucyte Max % killing, 60 h": 81, "Huh7 on xCELLigence IC50 (M), human TDC, E:T 15:1, 60 h": "6.7e-11", "Huh7 on xCELLigence Max % killing, 60 h": 90}
{"binder": "A022600179 (protein) DVQLVESGGGVVQPGGSLRLSCVASGYVHKINFYGWYRQAPGKEREKVAHISIGDQTDYADSAKGRFTISRDESKNTVYLQMNSLRPEDTAAYYCRALSRIWPYDYWGQGTLVTVSSGGGGSEVQLVESGGGLVQPGGSLRLSCVASGFTFSSFAMTWVRRPPGKGLEWVATITNGGVTSYRDSVKGRFTISRDNAKNTLYLEMTSLNPEDTAVYICANARRTGPRAPTDIGSYRGQGTLVTVSSGGGGSGGGSEVQLVESGGGVVQPGGSLRLSCAASGFTFRSFGMSWVRQAPGKGPEWVSSISGSGSDTLYADSVKGRFTISRDNSKNTLYLQMNSLRPEDTALYYCTIGGSLSRSSQGTLVTVSSA", "HepG2 on Incucyte IC50 (M), human TDC, E:T 15:1, 60 h": "2.92e-09", "HepG2 on Incucyte Max % killing, 60 h": 76, "Huh7 on xCELLigence IC50 (M), human TDC, E:T 15:1, 60 h": "6.13e-09", "Huh7 on xCELLigence Max % killing, 60 h": 66}
